Data from patent US8785135B2, “Mutant G-protein coupled receptors and methods for selecting them” (Heptares Therapeutics Limited, priority 2007, dated 2014).

Experiment: Thermostability of NTR and mutants (3H-neurotensin binding)
Format: physicochemical
Details: for thermostability, 3H-neurotensin (agonist) binding after the heating step: heated in the absence of the agonist; for thermostability, heated in the presence of 3H-neurotensin: Ligand(+) format

B1: A356L: NTR point mutant (protein, UniProt P20789 1-424, looked up, variant A356L)
Neurotensin receptor type 1: MHLNSSVPQGTPGEPDAQPFSGPQSEMEATFLALSLSNGSGNTSESDTAGPNSDLDVNTDIYSKVLVTAIYLALFVVGTVGNSVTAFTLARKKSLQSLQSTVHYHLGSLALSDLLILLLAMPVELYNFIWVHHPWAFGDAGCRGYYFLRDACTYATALNVASLSVERYLAICHPFKAKTLMSRSRTKKFISAIWLASALLAIPMLFTMGLQNRSGDGTHPGGLVCTPIVDTATVKVVIQVNTFMSFLFPMLVISILNTVIANKLTVMVHQAAEQGRVCTVGTHNGLEHSTFNMTIEPGRVQALRHGVLVLRAVVIAFVVCWLPYHVRRLMFCYISDEQWTTFLFDFYHYFYMLTNLLFYVSSAINPILYNLVSANFRQVFLSTLACLCPGWRHRRKKRPTFSRKPNSMSSNHAFSTSATRETLY
thermostability, 3H-neurotensin (agonist) binding after the heating step: small but significant increase in thermostability

B2: T294A: NTR point mutant (protein, UniProt P20789 1-424, looked up, variant T294A)
Neurotensin receptor type 1: MHLNSSVPQGTPGEPDAQPFSGPQSEMEATFLALSLSNGSGNTSESDTAGPNSDLDVNTDIYSKVLVTAIYLALFVVGTVGNSVTAFTLARKKSLQSLQSTVHYHLGSLALSDLLILLLAMPVELYNFIWVHHPWAFGDAGCRGYYFLRDACTYATALNVASLSVERYLAICHPFKAKTLMSRSRTKKFISAIWLASALLAIPMLFTMGLQNRSGDGTHPGGLVCTPIVDTATVKVVIQVNTFMSFLFPMLVISILNTVIANKLTVMVHQAAEQGRVCTVGTHNGLEHSTFNMAIEPGRVQALRHGVLVLRAVVIAFVVCWLPYHVRRLMFCYISDEQWTTFLFDFYHYFYMLTNALFYVSSAINPILYNLVSANFRQVFLSTLACLCPGWRHRRKKRPTFSRKPNSMSSNHAFSTSATRETLY
thermostability, heated in the presence of 3H-neurotensin: improved thermostability

B3: L308A: NTR point mutant (protein, UniProt P20789 1-424, looked up, variant L308A)
Neurotensin receptor type 1: MHLNSSVPQGTPGEPDAQPFSGPQSEMEATFLALSLSNGSGNTSESDTAGPNSDLDVNTDIYSKVLVTAIYLALFVVGTVGNSVTAFTLARKKSLQSLQSTVHYHLGSLALSDLLILLLAMPVELYNFIWVHHPWAFGDAGCRGYYFLRDACTYATALNVASLSVERYLAICHPFKAKTLMSRSRTKKFISAIWLASALLAIPMLFTMGLQNRSGDGTHPGGLVCTPIVDTATVKVVIQVNTFMSFLFPMLVISILNTVIANKLTVMVHQAAEQGRVCTVGTHNGLEHSTFNMTIEPGRVQALRHGVAVLRAVVIAFVVCWLPYHVRRLMFCYISDEQWTTFLFDFYHYFYMLTNALFYVSSAINPILYNLVSANFRQVFLSTLACLCPGWRHRRKKRPTFSRKPNSMSSNHAFSTSATRETLY
thermostability, heated in the presence of 3H-neurotensin: improved thermostability

B4: G306A: NTR point mutant (protein, UniProt P20789 1-424, looked up, variant G306A)
Neurotensin receptor type 1: MHLNSSVPQGTPGEPDAQPFSGPQSEMEATFLALSLSNGSGNTSESDTAGPNSDLDVNTDIYSKVLVTAIYLALFVVGTVGNSVTAFTLARKKSLQSLQSTVHYHLGSLALSDLLILLLAMPVELYNFIWVHHPWAFGDAGCRGYYFLRDACTYATALNVASLSVERYLAICHPFKAKTLMSRSRTKKFISAIWLASALLAIPMLFTMGLQNRSGDGTHPGGLVCTPIVDTATVKVVIQVNTFMSFLFPMLVISILNTVIANKLTVMVHQAAEQGRVCTVGTHNGLEHSTFNMTIEPGRVQALRHAVLVLRAVVIAFVVCWLPYHVRRLMFCYISDEQWTTFLFDFYHYFYMLTNALFYVSSAINPILYNLVSANFRQVFLSTLACLCPGWRHRRKKRPTFSRKPNSMSSNHAFSTSATRETLY
thermostability, heated in the presence of 3H-neurotensin: improved thermostability

B5: H103A: NTR point mutant (protein, UniProt P20789 1-424, looked up, variant H103A)
Neurotensin receptor type 1: MHLNSSVPQGTPGEPDAQPFSGPQSEMEATFLALSLSNGSGNTSESDTAGPNSDLDVNTDIYSKVLVTAIYLALFVVGTVGNSVTAFTLARKKSLQSLQSTVAYHLGSLALSDLLILLLAMPVELYNFIWVHHPWAFGDAGCRGYYFLRDACTYATALNVASLSVERYLAICHPFKAKTLMSRSRTKKFISAIWLASALLAIPMLFTMGLQNRSGDGTHPGGLVCTPIVDTATVKVVIQVNTFMSFLFPMLVISILNTVIANKLTVMVHQAAEQGRVCTVGTHNGLEHSTFNMTIEPGRVQALRHGVLVLRAVVIAFVVCWLPYHVRRLMFCYISDEQWTTFLFDFYHYFYMLTNALFYVSSAINPILYNLVSANFRQVFLSTLACLCPGWRHRRKKRPTFSRKPNSMSSNHAFSTSATRETLY
thermostability, heated in the presence of 3H-neurotensin: improved thermostability | thermostability, 3H-neurotensin (agonist) binding after the heating step: small but significant increase in thermostability

B6: I260A: NTR point mutant (protein, UniProt P20789 1-424, looked up, variant I260A)
Neurotensin receptor type 1: MHLNSSVPQGTPGEPDAQPFSGPQSEMEATFLALSLSNGSGNTSESDTAGPNSDLDVNTDIYSKVLVTAIYLALFVVGTVGNSVTAFTLARKKSLQSLQSTVHYHLGSLALSDLLILLLAMPVELYNFIWVHHPWAFGDAGCRGYYFLRDACTYATALNVASLSVERYLAICHPFKAKTLMSRSRTKKFISAIWLASALLAIPMLFTMGLQNRSGDGTHPGGLVCTPIVDTATVKVVIQVNTFMSFLFPMLVISILNTVAANKLTVMVHQAAEQGRVCTVGTHNGLEHSTFNMTIEPGRVQALRHGVLVLRAVVIAFVVCWLPYHVRRLMFCYISDEQWTTFLFDFYHYFYMLTNALFYVSSAINPILYNLVSANFRQVFLSTLACLCPGWRHRRKKRPTFSRKPNSMSSNHAFSTSATRETLY
thermostability, heated in the presence of 3H-neurotensin: improved thermostability

B7: 1253A: NTR point mutant, Ile 253 to Ala (protein, UniProt P20789 1-424, looked up, variant I253A)
Neurotensin receptor type 1: MHLNSSVPQGTPGEPDAQPFSGPQSEMEATFLALSLSNGSGNTSESDTAGPNSDLDVNTDIYSKVLVTAIYLALFVVGTVGNSVTAFTLARKKSLQSLQSTVHYHLGSLALSDLLILLLAMPVELYNFIWVHHPWAFGDAGCRGYYFLRDACTYATALNVASLSVERYLAICHPFKAKTLMSRSRTKKFISAIWLASALLAIPMLFTMGLQNRSGDGTHPGGLVCTPIVDTATVKVVIQVNTFMSFLFPMLVASILNTVIANKLTVMVHQAAEQGRVCTVGTHNGLEHSTFNMTIEPGRVQALRHGVLVLRAVVIAFVVCWLPYHVRRLMFCYISDEQWTTFLFDFYHYFYMLTNALFYVSSAINPILYNLVSANFRQVFLSTLACLCPGWRHRRKKRPTFSRKPNSMSSNHAFSTSATRETLY
thermostability, heated in the presence of 3H-neurotensin: improved thermostability

B8: L310A: NTR point mutant (protein, UniProt P20789 1-424, looked up, variant L310A)
Neurotensin receptor type 1: MHLNSSVPQGTPGEPDAQPFSGPQSEMEATFLALSLSNGSGNTSESDTAGPNSDLDVNTDIYSKVLVTAIYLALFVVGTVGNSVTAFTLARKKSLQSLQSTVHYHLGSLALSDLLILLLAMPVELYNFIWVHHPWAFGDAGCRGYYFLRDACTYATALNVASLSVERYLAICHPFKAKTLMSRSRTKKFISAIWLASALLAIPMLFTMGLQNRSGDGTHPGGLVCTPIVDTATVKVVIQVNTFMSFLFPMLVISILNTVIANKLTVMVHQAAEQGRVCTVGTHNGLEHSTFNMTIEPGRVQALRHGVLVARAVVIAFVVCWLPYHVRRLMFCYISDEQWTTFLFDFYHYFYMLTNALFYVSSAINPILYNLVSANFRQVFLSTLACLCPGWRHRRKKRPTFSRKPNSMSSNHAFSTSATRETLY
thermostability, heated in the presence of 3H-neurotensin: improved thermostability

B9: R183A: NTR point mutant (protein, UniProt P20789 1-424, looked up, variant R183A)
Neurotensin receptor type 1: MHLNSSVPQGTPGEPDAQPFSGPQSEMEATFLALSLSNGSGNTSESDTAGPNSDLDVNTDIYSKVLVTAIYLALFVVGTVGNSVTAFTLARKKSLQSLQSTVHYHLGSLALSDLLILLLAMPVELYNFIWVHHPWAFGDAGCRGYYFLRDACTYATALNVASLSVERYLAICHPFKAKTLMSASRTKKFISAIWLASALLAIPMLFTMGLQNRSGDGTHPGGLVCTPIVDTATVKVVIQVNTFMSFLFPMLVISILNTVIANKLTVMVHQAAEQGRVCTVGTHNGLEHSTFNMTIEPGRVQALRHGVLVLRAVVIAFVVCWLPYHVRRLMFCYISDEQWTTFLFDFYHYFYMLTNALFYVSSAINPILYNLVSANFRQVFLSTLACLCPGWRHRRKKRPTFSRKPNSMSSNHAFSTSATRETLY
thermostability, heated in the presence of 3H-neurotensin: improved thermostability

B10: M250A: NTR point mutant (protein, UniProt P20789 1-424, looked up, variant M250A)
Neurotensin receptor type 1: MHLNSSVPQGTPGEPDAQPFSGPQSEMEATFLALSLSNGSGNTSESDTAGPNSDLDVNTDIYSKVLVTAIYLALFVVGTVGNSVTAFTLARKKSLQSLQSTVHYHLGSLALSDLLILLLAMPVELYNFIWVHHPWAFGDAGCRGYYFLRDACTYATALNVASLSVERYLAICHPFKAKTLMSRSRTKKFISAIWLASALLAIPMLFTMGLQNRSGDGTHPGGLVCTPIVDTATVKVVIQVNTFMSFLFPALVISILNTVIANKLTVMVHQAAEQGRVCTVGTHNGLEHSTFNMTIEPGRVQALRHGVLVLRAVVIAFVVCWLPYHVRRLMFCYISDEQWTTFLFDFYHYFYMLTNALFYVSSAINPILYNLVSANFRQVFLSTLACLCPGWRHRRKKRPTFSRKPNSMSSNHAFSTSATRETLY
thermostability, heated in the presence of 3H-neurotensin: improved thermostability

B11: V309A: NTR point mutant (protein, UniProt P20789 1-424, looked up, variant V309A)
Neurotensin receptor type 1: MHLNSSVPQGTPGEPDAQPFSGPQSEMEATFLALSLSNGSGNTSESDTAGPNSDLDVNTDIYSKVLVTAIYLALFVVGTVGNSVTAFTLARKKSLQSLQSTVHYHLGSLALSDLLILLLAMPVELYNFIWVHHPWAFGDAGCRGYYFLRDACTYATALNVASLSVERYLAICHPFKAKTLMSRSRTKKFISAIWLASALLAIPMLFTMGLQNRSGDGTHPGGLVCTPIVDTATVKVVIQVNTFMSFLFPMLVISILNTVIANKLTVMVHQAAEQGRVCTVGTHNGLEHSTFNMTIEPGRVQALRHGVLALRAVVIAFVVCWLPYHVRRLMFCYISDEQWTTFLFDFYHYFYMLTNALFYVSSAINPILYNLVSANFRQVFLSTLACLCPGWRHRRKKRPTFSRKPNSMSSNHAFSTSATRETLY
thermostability, heated in the presence of 3H-neurotensin: improved thermostability

B12: A177L: NTR point mutant (protein, UniProt P20789 1-424, looked up, variant A177L)
Neurotensin receptor type 1: MHLNSSVPQGTPGEPDAQPFSGPQSEMEATFLALSLSNGSGNTSESDTAGPNSDLDVNTDIYSKVLVTAIYLALFVVGTVGNSVTAFTLARKKSLQSLQSTVHYHLGSLALSDLLILLLAMPVELYNFIWVHHPWAFGDAGCRGYYFLRDACTYATALNVASLSVERYLAICHPFKLKTLMSRSRTKKFISAIWLASALLAIPMLFTMGLQNRSGDGTHPGGLVCTPIVDTATVKVVIQVNTFMSFLFPMLVISILNTVIANKLTVMVHQAAEQGRVCTVGTHNGLEHSTFNMTIEPGRVQALRHGVLVLRAVVIAFVVCWLPYHVRRLMFCYISDEQWTTFLFDFYHYFYMLTNALFYVSSAINPILYNLVSANFRQVFLSTLACLCPGWRHRRKKRPTFSRKPNSMSSNHAFSTSATRETLY
thermostability, heated in the presence of 3H-neurotensin: improved thermostability
